Measurements: paper PMC3761943 (Cell, 2013)

Legend:
SEC = target: the molecule itself; assay: SEC
[1] = target: T1, kinesin-4ΔN (human kinesin-4, aa 733-1232) (human, UniProt O95239 733-1232); assay: pull-down
T1 sequence (looked up): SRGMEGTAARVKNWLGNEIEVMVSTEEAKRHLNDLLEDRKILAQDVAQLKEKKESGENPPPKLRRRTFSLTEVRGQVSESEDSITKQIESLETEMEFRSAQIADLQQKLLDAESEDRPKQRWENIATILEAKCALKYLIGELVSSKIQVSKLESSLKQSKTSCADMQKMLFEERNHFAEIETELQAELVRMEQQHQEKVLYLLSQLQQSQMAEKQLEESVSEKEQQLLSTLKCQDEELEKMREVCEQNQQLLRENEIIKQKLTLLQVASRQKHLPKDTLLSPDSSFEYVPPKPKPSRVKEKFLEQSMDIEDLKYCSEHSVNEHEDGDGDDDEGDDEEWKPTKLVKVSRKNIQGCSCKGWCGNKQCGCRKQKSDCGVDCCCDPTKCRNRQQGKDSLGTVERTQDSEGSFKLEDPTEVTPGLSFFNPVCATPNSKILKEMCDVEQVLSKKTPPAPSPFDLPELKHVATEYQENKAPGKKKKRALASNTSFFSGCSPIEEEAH

B1: PRC1ΔN1SΔC (human PRC1, aa 19-486) (domain or fragment, UniProt O43663 19-486, looked up)
chain: LNHLREIWELIGIPEDQRLQRTEVVKKHIKELLDMMIAEEESLKERLIKSISVCQKELNTLCSELHVEPFQEEGETTILQLEKDLRTQVELMRKQKKERKQELKLLQEQDQELCEILCMPHYDIDSASVPSLEELNQFRQHVTTLRETKASRREEFVSIKRQIILCMEALDHTPDTSFERDVVCEDEDAFCLSLENIATLQKLLRQLEMQKSQNEAVCEGLRTQIRELWDRLQIPEEEREAVATIMSGSKAKVRKALQLEVDRLEELKMQNMKKVIEAIRVELVQYWDQCFYSQEQRQAFAPFCAEDYTESLLQLHDAEIVRLKNYYEVHKELFEGVQKWEETWRLFLEFERKASDPNRFTNRGGNLLKEEKQRAKLQKMLPKLEEELKARIELWEQEHSKAFMVNGQKFMEYVAEQWEMHRLEKERAKQERQLKNKKQTETEMLYGSAPRTPSKRRGLAPNTPGKAR
B1 was tested, and the “stoichiometry N” value (SEC) was 2 and the Kd [1] was 210 ± 10 nM.
